Measurements reported in patent publication US20250222128A1 (Zymeworks, published 2025).

B1: v17427 (telisotuzumab paratope, HetFc, unmodified hinge, full-size IgG1 antibody) (antibody)
heavy 1: QVQLVQSGAEVKKPGASVKVSCKASGYIFTAYTMHWVRQAPGQGLEWMGWIKPNNGLANYAQKFQGRVTMTRDTSISTAYMELSRLRSDDTAVYYCARSEITTEFDYWGQGTLVTVSSASTKGPSVFPLAPSSKSTSGGTAALGCLVKDYFPEPVTVSWNSGALTSGVHTFPAVLQSSGLYSLSSVVTVPSSSLGTQTYICNVNHKPSNTKVDKKVEPKSCDKTHTCPPCPAPELLGGPSVFLFPPKPKDTLMISRTPEVTCVVVDVSHEDPEVKFNWYVDGVEVHNAKTKPREEQYNSTYRVVSVLTVLHQDWLNGKEYKCKVSNKALPAPIEKTISKAKGQPREPQVYVYPPSRDELTKNQVSLTCLVKGFYPSDIAVEWESNGQPENNYKTTPPVLDSDGSFALVSKLTVDKSRWQQGNVFSCSVMHEALHNHYTQKSLSLSPG
heavy 2: not shown
light: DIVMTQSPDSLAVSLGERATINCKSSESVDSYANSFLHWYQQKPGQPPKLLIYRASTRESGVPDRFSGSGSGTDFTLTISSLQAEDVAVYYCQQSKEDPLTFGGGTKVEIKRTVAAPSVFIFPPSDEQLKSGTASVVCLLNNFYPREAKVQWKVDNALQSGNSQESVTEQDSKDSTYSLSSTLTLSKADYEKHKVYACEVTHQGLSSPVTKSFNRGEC
notes: also called variant v17427; unconjugated HetFc variant
B2: v17427-Drug-Linker 002 DAR 6 (antibody)
heavy 1: B1 heavy 1
heavy 2: not shown
light: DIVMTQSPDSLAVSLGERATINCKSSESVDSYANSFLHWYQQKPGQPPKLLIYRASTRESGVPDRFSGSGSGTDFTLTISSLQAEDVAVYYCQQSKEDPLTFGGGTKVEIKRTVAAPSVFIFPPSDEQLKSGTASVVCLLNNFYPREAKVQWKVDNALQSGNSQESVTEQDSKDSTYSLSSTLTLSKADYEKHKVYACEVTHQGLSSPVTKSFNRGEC
modifications: Drug-Linker 002 stochastically conjugated to lysine residues of the antibody, about DAR 6; Drug-Linker 002 (auristatin analogue Compound 1) stochastically conjugated to lysine residues of the antibody, about DAR 6
notes: Antibody-drug conjugate of v17427
B3: v17427-Drug-Linker 002 DAR 4 (antibody)
heavy 1: B1 heavy 1
heavy 2: not shown
light: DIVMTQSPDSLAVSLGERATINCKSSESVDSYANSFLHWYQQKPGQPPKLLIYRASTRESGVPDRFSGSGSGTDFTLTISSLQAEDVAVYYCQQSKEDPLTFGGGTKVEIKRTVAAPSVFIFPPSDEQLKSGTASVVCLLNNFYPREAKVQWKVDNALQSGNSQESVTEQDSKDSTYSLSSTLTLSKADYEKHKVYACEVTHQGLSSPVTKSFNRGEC
modifications: Drug-Linker 002 stochastically conjugated to lysine residues of the antibody, about DAR 4; Drug-Linker 002 (auristatin analogue Compound 1) stochastically conjugated to lysine residues of the antibody, about DAR 4
notes: as for B2

What follows are binders tested against T1, c-Met (hepatocyte growth factor receptor, HGFR), endogenous on tumour cell lines (UniProt P08581 25-1390, limits assumed) (assay: apparent Kd, flow cytometry on H292 cells (endogenous cMet)).
T1 construct: whole, on cells
Protocol: (§1) Briefly, cells were seeded at 50,000 cells/well in V-bottom 96-well plates and treated with antibody for 24 hours at 4° C. to prevent internalization. Following incubation, cells were washed and stained with anti-human IgG Fc AF647 conjugate (Jackson ImmunoResearch Laboratories, Inc., West Grove, PA; Cat. No. 109-605-098) at 4° C. for 30 min. Following incubation and washing, fluorescence was detected by flow cytometry on a BD LSRFortessa™ Cell Analyzer (BD Biosciences, Franklin Lake, NJ) with 1,000 minimum events collected per well. AF647/APC-A GeoMean (fluorescence signal geometric mean, proportional to anti-Human AF647 binding) in live cell population was plotted using GraphPad Prism Version 8 (GraphPad Software, San Diego, CA).

T1 sequence (P08581 25-1390 limits assumed): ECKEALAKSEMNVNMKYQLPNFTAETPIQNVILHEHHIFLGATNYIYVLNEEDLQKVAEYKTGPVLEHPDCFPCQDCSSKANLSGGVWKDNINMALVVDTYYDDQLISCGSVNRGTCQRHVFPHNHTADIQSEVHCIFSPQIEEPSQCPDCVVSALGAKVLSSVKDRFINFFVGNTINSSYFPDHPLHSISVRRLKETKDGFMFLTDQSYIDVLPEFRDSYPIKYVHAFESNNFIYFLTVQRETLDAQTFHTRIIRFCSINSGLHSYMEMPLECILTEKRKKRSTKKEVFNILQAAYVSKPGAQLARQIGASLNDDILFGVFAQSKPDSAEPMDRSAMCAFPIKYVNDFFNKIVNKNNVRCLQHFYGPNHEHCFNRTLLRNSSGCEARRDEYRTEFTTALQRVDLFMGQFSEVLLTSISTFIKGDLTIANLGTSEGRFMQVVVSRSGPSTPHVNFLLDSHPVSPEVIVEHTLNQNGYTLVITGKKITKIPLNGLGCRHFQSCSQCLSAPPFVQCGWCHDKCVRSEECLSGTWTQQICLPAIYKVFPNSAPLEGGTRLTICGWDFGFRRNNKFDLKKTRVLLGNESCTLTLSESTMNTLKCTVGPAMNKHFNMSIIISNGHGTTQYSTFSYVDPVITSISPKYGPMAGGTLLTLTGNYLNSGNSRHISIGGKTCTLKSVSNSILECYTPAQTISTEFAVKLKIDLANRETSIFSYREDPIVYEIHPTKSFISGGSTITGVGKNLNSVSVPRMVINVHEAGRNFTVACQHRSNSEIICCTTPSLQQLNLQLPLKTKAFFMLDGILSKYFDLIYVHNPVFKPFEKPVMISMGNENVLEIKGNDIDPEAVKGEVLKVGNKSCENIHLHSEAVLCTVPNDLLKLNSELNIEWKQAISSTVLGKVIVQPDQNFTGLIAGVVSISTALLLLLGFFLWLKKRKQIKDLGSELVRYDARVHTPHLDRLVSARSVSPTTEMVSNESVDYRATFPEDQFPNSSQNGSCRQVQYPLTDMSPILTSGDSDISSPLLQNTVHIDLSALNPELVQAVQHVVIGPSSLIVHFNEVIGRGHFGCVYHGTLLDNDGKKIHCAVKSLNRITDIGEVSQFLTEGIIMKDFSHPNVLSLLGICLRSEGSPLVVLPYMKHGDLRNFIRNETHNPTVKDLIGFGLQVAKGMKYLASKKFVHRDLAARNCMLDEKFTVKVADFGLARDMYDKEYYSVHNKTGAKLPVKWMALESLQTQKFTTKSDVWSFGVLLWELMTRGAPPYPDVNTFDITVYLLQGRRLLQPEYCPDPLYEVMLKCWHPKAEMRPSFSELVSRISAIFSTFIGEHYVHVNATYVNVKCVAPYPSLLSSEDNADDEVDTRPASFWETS

Row | Binder | Kd [nM]
1 | B1 | 0.03
2 | B2 | 0.05
3 | B3 | 0.04

Each binder was assayed against T1, c-Met (hepatocyte growth factor …) (assay: apparent Kd, flow cytometry on SNU-5 cells (endogenous cMet)).
Protocol: as §1

Row | Binder | Kd [nM]
4 | B1 | 0.33
5 | B2 | 0.43
6 | B3 | 0.43

Biological target: T1, c-Met (hepatocyte growth factor …)
Assay: apparent Kd, flow cytometry on H292 cells (endogenous cMet)
Remark: another data set of the same source
Protocol: as §1
(§2) Cellular binding was determined as described in Example 10.

Row | Binder | Kd [nM]
7 | B1 | 0.026
8 | B2 | 0.047
9 | B3 | 0.04

Each binder was assayed against T1, c-Met (hepatocyte growth factor …) (assay: flow cytometry on H292 cells (endogenous cMet), 24 h at 4 C, anti-human IgG Fc AF647).
Protocol: as §1

Row | Binder | Bmax
10 | B1 | 2120 AF647 GeoMean fluorescence
11 | B2 | 2150 AF647 GeoMean fluorescence
12 | B3 | 2120 AF647 GeoMean fluorescence

These binders were tested against T1, c-Met (hepatocyte growth factor …) (assay: flow cytometry on SNU-5 cells (endogenous cMet), 24 h at 4 C, anti-human IgG Fc AF647).
Protocol: as §1

Row | Binder | Bmax
13 | B1 | 34800 AF647 GeoMean fluorescence
14 | B2 | 33500 AF647 GeoMean fluorescence
15 | B3 | 34100 AF647 GeoMean fluorescence

What follows are binders tested against T1, c-Met (hepatocyte growth factor …) (assay: flow cytometry on H292 cells (endogenous cMet), as in Example 10).
Protocol: as §1, §2

Row | Binder | Bmax
16 | B1 | 2120 AF647 GeoMean fluorescence
17 | B2 | 2150 AF647 GeoMean fluorescence
18 | B3 | 2120 AF647 GeoMean fluorescence

These binders were tested against T1, c-Met (hepatocyte growth factor …) (assay: flow cytometry on SNU-5 cells (endogenous cMet), as in Example 10).
Protocol: as §1, §2

Row | Binder | Bmax
19 | B1 | 34800 AF647 GeoMean fluorescence
20 | B2 | 33500 AF647 GeoMean fluorescence
21 | B3 | 34100 AF647 GeoMean fluorescence

Biological target: T1, c-Met (hepatocyte growth factor …)
Assay: apparent Kd, flow cytometry on SNU-5 cells (endogenous cMet)
Remark: another data set of the same source
Protocol: as §1, §2

Row | Binder | Kd [nM]
22 | B1 | 0.328
23 | B2 | 0.435
24 | B3 | 0.428
